Like-named read-outs stand apart in the source and are kept apart here.
Key:
[1] = target: TIM-SNAP-HA (Timeless, S-TIM) (Drosophila melanogaster); test: pull-down
[2] = target: TIM-SNAP-HA (Timeless, S-TIM) (Drosophila melanogaster); test: pull-down; remark: listed apart in the source
[3] = target: TIM-SNAP-HA (Timeless, S-TIM) (Drosophila melanogaster); test: pull-down; remark: listed apart in the source
[4] = target: TIM-SNAP-HA (Timeless, S-TIM) (Drosophila melanogaster); test: native gel or EMSA

Sequence of TIM-SNAP-HA (Timeless, S-TIM) (Drosophila melanogaster) (A4V040 whole entry): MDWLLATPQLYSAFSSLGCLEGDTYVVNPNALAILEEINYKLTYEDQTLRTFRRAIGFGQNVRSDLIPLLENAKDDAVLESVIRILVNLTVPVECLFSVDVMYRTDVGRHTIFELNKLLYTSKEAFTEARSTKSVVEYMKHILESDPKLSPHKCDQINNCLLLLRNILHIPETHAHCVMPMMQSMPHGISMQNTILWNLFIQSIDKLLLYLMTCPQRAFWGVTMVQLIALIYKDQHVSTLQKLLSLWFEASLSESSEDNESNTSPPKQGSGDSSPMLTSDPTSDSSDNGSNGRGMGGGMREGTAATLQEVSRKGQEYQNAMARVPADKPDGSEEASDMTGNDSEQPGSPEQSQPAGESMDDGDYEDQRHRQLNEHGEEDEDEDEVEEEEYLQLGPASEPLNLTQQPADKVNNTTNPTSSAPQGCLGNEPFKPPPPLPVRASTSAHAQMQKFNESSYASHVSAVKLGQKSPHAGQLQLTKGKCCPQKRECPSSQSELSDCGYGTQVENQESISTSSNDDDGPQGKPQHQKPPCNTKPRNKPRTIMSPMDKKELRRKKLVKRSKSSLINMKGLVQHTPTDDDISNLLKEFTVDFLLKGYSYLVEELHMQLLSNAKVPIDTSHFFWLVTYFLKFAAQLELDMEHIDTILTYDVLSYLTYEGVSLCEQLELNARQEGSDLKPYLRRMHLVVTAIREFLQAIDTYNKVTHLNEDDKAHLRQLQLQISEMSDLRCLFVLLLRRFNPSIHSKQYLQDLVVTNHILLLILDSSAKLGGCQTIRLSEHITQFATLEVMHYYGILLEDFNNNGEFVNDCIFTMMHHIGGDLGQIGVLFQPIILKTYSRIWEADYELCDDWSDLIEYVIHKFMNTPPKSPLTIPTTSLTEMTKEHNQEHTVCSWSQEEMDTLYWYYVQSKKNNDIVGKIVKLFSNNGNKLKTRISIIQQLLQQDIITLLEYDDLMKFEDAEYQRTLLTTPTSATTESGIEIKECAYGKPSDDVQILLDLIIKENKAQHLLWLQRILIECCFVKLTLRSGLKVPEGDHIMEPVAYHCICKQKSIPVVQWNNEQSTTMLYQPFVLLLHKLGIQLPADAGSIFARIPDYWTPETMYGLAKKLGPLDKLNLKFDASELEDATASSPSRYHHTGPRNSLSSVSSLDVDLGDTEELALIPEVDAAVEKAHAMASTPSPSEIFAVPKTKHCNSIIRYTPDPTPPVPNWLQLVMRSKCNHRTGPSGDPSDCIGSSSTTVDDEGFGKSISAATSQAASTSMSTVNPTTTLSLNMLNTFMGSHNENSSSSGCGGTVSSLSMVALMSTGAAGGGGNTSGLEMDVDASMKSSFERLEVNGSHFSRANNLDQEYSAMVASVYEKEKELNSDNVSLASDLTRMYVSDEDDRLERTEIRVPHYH

How did the Kd [1] turn out when “CLIP-CRY H377A (from UniProt O77059 1-539) (natural protein)” was run?
Its Kd is 18.1 µM.

How did the fold greater affinity than CRYΔ [2] turn out when “CLIP-CRY H377L (from UniProt O77059 1-539) (natural protein)” was run?
Its fold greater affinity than CRYΔ is 10 fold.

What about the fold greater affinity than CRYΔ [1] of the same substance?
Its fold greater affinity than CRYΔ is 10 fold.

“CLIP-CRY W394F (from UniProt O77059 1-539) (natural protein)” was tested. Which fold difference in KD against CRYΔ [1] did it give?
The fold difference in KD against CRYΔ was 35 fold.

Which results are given for “CLIP-CRYΔ (residue 1-520) (from UniProt O77059 1-520) (domain or fragment)”?
Kd [3]: 1500 nM; Kd [1]: 1.7 µM; stoichiometry N [4]: 1.08

From publication PMC9201872
